20 molecules from patent US20090105152A1 can be followed below.

For this experiment, the target named is human OT7T175 (metastin receptor) (human) (UniProt Q969F8). In words: cell-based or functional assay.

Numbered stars: 1 amine (or outer) side, 2 acyl side, 3 side chain; on linkers, the order of the positions; unused ones are H or OH. Square brackets hold non-standard residues; d marks the D form. Asp(NHcPr) = N-omega-cyclopropylasparagine, O=C(C[C@H](N[*:1])C(=O)[*:2])NC1CC1; Asp(NHBzl) = N-omega-benzylasparagine, O=C(C[C@H](N[*:1])C(=O)[*:2])NCc1ccccc1; Arg(Me) = CNC(=N)NCCC[C@H](N)C(=O)O; Dap(CONH2) = NC(=O)NC[C@H](N)C(=O)O; Ala(cPr) = N[C@@H](CC1CC1)C(=O)O; Hyp = O=C(O)[C@@H]1C[C@@H](O)CN1; Cit = NC(=O)NCCC[C@H](N)C(=O)O; NMeS = CN[C@@H](CO)C(=O)O; Dab = NCC[C@H](N)C(=O)O; Dap = NC[C@H](N)C(=O)O; azaGly = NNC(=O)O

Sequence of human OT7T175 (metastin receptor) (human) (Q969F8 whole entry L364H): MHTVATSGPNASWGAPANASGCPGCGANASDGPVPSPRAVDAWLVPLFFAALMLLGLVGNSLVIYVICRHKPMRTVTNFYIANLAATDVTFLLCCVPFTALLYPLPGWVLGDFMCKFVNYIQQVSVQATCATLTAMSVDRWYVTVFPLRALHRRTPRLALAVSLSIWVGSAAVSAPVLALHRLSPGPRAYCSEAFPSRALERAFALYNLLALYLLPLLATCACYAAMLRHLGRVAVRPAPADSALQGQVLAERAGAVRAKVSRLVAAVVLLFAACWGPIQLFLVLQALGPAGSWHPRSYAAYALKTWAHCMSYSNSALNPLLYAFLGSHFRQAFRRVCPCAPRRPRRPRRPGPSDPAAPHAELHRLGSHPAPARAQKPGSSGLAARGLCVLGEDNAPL

B1: des(1)-Ac-[D-Tyr2,Hyp3,Thr5,AzaGly7,Ala(cPr)8,Arg(Me)9,Trp10]MS10 (peptide)
peptide: Ac-[dY][Hyp]NTF[azaGly][Ala(cPr)][Arg(Me)]W-NH2
SMILES: CNC(=N)NCCC[C@H](NC(=O)[C@H](CC1CC1)NC(=O)NNC(=O)[C@H](Cc1ccccc1)NC(=O)[C@@H](NC(=O)[C@H](CC(N)=O)NC(=O)[C@@H]1C[C@@H](O)CN1C(=O)[C@@H](Cc1ccc(O)cc1)NC(C)=O)[C@@H](C)O)C(=O)N[C@@H](Cc1c[nH]c2ccccc12)C(N)=O
The molecule B1 registered an intracellular Ca ion level-increasing activity [specific activity to Metastin (1-54)] (relative to Metastin (1-54)) of 0.6.

B2: des(1)-Ac-[D-Tyr2,Hyp3,NMeSer5,AzaGly7,Arg(Me)9,Trp10]MS10 (peptide)
peptide: Ac-[dY][Hyp]N[NMeS]F[azaGly]L[Arg(Me)]W-NH2
SMILES: CNC(=N)NCCC[C@H](NC(=O)[C@H](CC(C)C)NC(=O)NNC(=O)[C@H](Cc1ccccc1)NC(=O)[C@H](CO)N(C)C(=O)[C@H](CC(N)=O)NC(=O)[C@@H]1C[C@@H](O)CN1C(=O)[C@@H](Cc1ccc(O)cc1)NC(C)=O)C(=O)N[C@@H](Cc1c[nH]c2ccccc12)C(N)=O
B2 gave an intracellular Ca ion level-increasing activity [specific activity to Metastin (1-54)] (relative to Metastin (1-54)) of 1.

B3: des(1)-Ac-[D-Tyr2,Hyp3,Dap4,Thr5,AzaGly7,Arg(Me)9,Trp10]MS10 (peptide)
peptide: Ac-[dY][Hyp][Dap]TF[azaGly]L[Arg(Me)]W-NH2
SMILES: CNC(=N)NCCC[C@H](NC(=O)[C@H](CC(C)C)NC(=O)NNC(=O)[C@H](Cc1ccccc1)NC(=O)[C@@H](NC(=O)[C@H](CN)NC(=O)[C@@H]1C[C@@H](O)CN1C(=O)[C@@H](Cc1ccc(O)cc1)NC(C)=O)[C@@H](C)O)C(=O)N[C@@H](Cc1c[nH]c2ccccc12)C(N)=O
B3 yielded an intracellular Ca ion level-increasing activity [specific activity to Metastin (1-54)] (relative to Metastin (1-54)) of 0.9.

B4: des(1)-Ac-[D-Tyr2,Hyp3,D-Thr5,AzaGly7,Arg(Me)9,Trp10]MS10 (peptide)
peptide: Ac-[dY][Hyp]N[dT]F[azaGly]L[Arg(Me)]W-NH2
Molecule B4 displayed an intracellular Ca ion level-increasing activity [specific activity to Metastin (1-54)] (relative to Metastin (1-54)) of 0.9.

B5: des(1)-Ac-[D-Tyr2,Hyp3,Ala5,AzaGly7,Arg(Me)9,Trp10]MS10 (peptide)
peptide: Ac-[dY][Hyp]NAF[azaGly]L[Arg(Me)]W-NH2
SMILES: CNC(=N)NCCC[C@H](NC(=O)[C@H](CC(C)C)NC(=O)NNC(=O)[C@H](Cc1ccccc1)NC(=O)[C@H](C)NC(=O)[C@H](CC(N)=O)NC(=O)[C@@H]1C[C@@H](O)CN1C(=O)[C@@H](Cc1ccc(O)cc1)NC(C)=O)C(=O)N[C@@H](Cc1c[nH]c2ccccc12)C(N)=O
Regarding B5, the intracellular Ca ion level-increasing activity [specific activity to Metastin (1-54)] (relative to Metastin (1-54)) worked out at 0.5.

B6: des(1)-Ac-[D-Tyr2,Hyp3,Cit4,Thr5,AzaGly7,Arg(Me)9,Trp10]MS10 (peptide)
peptide: Ac-[dY][Hyp][Cit]TF[azaGly]L[Arg(Me)]W-NH2
SMILES: CNC(=N)NCCC[C@H](NC(=O)[C@H](CC(C)C)NC(=O)NNC(=O)[C@H](Cc1ccccc1)NC(=O)[C@@H](NC(=O)[C@H](CCCNC(N)=O)NC(=O)[C@@H]1C[C@@H](O)CN1C(=O)[C@@H](Cc1ccc(O)cc1)NC(C)=O)[C@@H](C)O)C(=O)N[C@@H](Cc1c[nH]c2ccccc12)C(N)=O
Regarding B6, the intracellular Ca ion level-increasing activity [specific activity to Metastin (1-54)] (relative to Metastin (1-54)) was determined as 1.

B7: des(1)-Ac-[D-Tyr2,Hyp3,D-Asn4,Thr5,AzaGly7,Arg(Me)9,Trp10]MS10 (peptide)
peptide: Ac-[dY][Hyp][dN]TF[azaGly]L[Arg(Me)]W-NH2
In turn, B7 gave an intracellular Ca ion level-increasing activity [specific activity to Metastin (1-54)] (relative to Metastin (1-54)) of 0.9.

B8: des(1)-Ac-[D-Tyr2,Hyp3,Dab4,Thr5,AzaGly7,Arg(Me)9,Trp10]MS10 (peptide)
peptide: Ac-[dY][Hyp][Dab]TF[azaGly]L[Arg(Me)]W-NH2
SMILES: CNC(=N)NCCC[C@H](NC(=O)[C@H](CC(C)C)NC(=O)NNC(=O)[C@H](Cc1ccccc1)NC(=O)[C@@H](NC(=O)[C@H](CCN)NC(=O)[C@@H]1C[C@@H](O)CN1C(=O)[C@@H](Cc1ccc(O)cc1)NC(C)=O)[C@@H](C)O)C(=O)N[C@@H](Cc1c[nH]c2ccccc12)C(N)=O
Molecule B8 registered an intracellular Ca ion level-increasing activity [specific activity to Metastin (1-54)] (relative to Metastin (1-54)) of 1.

B9: des(1)-Ac-[D-Tyr2,Hyp3,Arg4,Thr5,AzaGly7,Arg(Me)9,Trp10]MS10 (peptide)
peptide: Ac-[dY][Hyp]RTF[azaGly]L[Arg(Me)]W-NH2
SMILES: CNC(=N)NCCC[C@H](NC(=O)[C@H](CC(C)C)NC(=O)NNC(=O)[C@H](Cc1ccccc1)NC(=O)[C@@H](NC(=O)[C@H](CCCNC(=N)N)NC(=O)[C@@H]1C[C@@H](O)CN1C(=O)[C@@H](Cc1ccc(O)cc1)NC(C)=O)[C@@H](C)O)C(=O)N[C@@H](Cc1c[nH]c2ccccc12)C(N)=O
As for B9, the intracellular Ca ion level-increasing activity [specific activity to Metastin (1-54)] (relative to Metastin (1-54)) came to 1.4.

B10: des(1)-Ac-[D-Tyr2,Hyp3,Gly5,AzaGly7,Arg(Me)9,Trp10]MS10 (peptide)
peptide: Ac-[dY][Hyp]NGF[azaGly]L[Arg(Me)]W-NH2
SMILES: CNC(=N)NCCC[C@H](NC(=O)[C@H](CC(C)C)NC(=O)NNC(=O)[C@H](Cc1ccccc1)NC(=O)CNC(=O)[C@H](CC(N)=O)NC(=O)[C@@H]1C[C@@H](O)CN1C(=O)[C@@H](Cc1ccc(O)cc1)NC(C)=O)C(=O)N[C@@H](Cc1c[nH]c2ccccc12)C(N)=O
For B10, the intracellular Ca ion level-increasing activity [specific activity to Metastin (1-54)] (relative to Metastin (1-54)) is 0.5.

B11: des(1)-Ac-[D-Tyr2,Hyp3,Alb4,Thr5,AzaGly7,Arg(Me)9,Trp10]MS10 (peptide)
peptide: Ac-[dY][Hyp][Dap(CONH2)]TF[azaGly]L[Arg(Me)]W-NH2
SMILES: CNC(=N)NCCC[C@H](NC(=O)[C@H](CC(C)C)NC(=O)NNC(=O)[C@H](Cc1ccccc1)NC(=O)[C@@H](NC(=O)[C@H](CNC(N)=O)NC(=O)[C@@H]1C[C@@H](O)CN1C(=O)[C@@H](Cc1ccc(O)cc1)NC(C)=O)[C@@H](C)O)C(=O)N[C@@H](Cc1c[nH]c2ccccc12)C(N)=O
B11: the intracellular Ca ion level-increasing activity [specific activity to Metastin (1-54)] (relative to Metastin (1-54)) was determined as 0.8.

B12: des(1)-Ac-[D-Tyr2,Hyp3,His4,Thr5,AzaGly7,Arg(Me)9,Trp10]MS10 (peptide)
peptide: Ac-[dY][Hyp]HTF[azaGly]L[Arg(Me)]W-NH2
SMILES: CNC(=N)NCCC[C@H](NC(=O)[C@H](CC(C)C)NC(=O)NNC(=O)[C@H](Cc1ccccc1)NC(=O)[C@@H](NC(=O)[C@H](Cc1c[nH]cn1)NC(=O)[C@@H]1C[C@@H](O)CN1C(=O)[C@@H](Cc1ccc(O)cc1)NC(C)=O)[C@@H](C)O)C(=O)N[C@@H](Cc1c[nH]c2ccccc12)C(N)=O
Consider B12, for which the intracellular Ca ion level-increasing activity [specific activity to Metastin (1-54)] (relative to Metastin (1-54)) was 1.1.

B13: des(1)-Ac-[D-Tyr2,D-Trp3,Asp(NHBzl)4,Thr5,AzaGly7,Arg(Me)9,Trp10]MS10 (peptide)
peptide: Ac-[dY][dW][Asp(NHBzl)]TF[azaGly]L[Arg(Me)]W-NH2
SMILES: CNC(=N)NCCC[C@H](NC(=O)[C@H](CC(C)C)NC(=O)NNC(=O)[C@H](Cc1ccccc1)NC(=O)[C@@H](NC(=O)[C@H](CC(=O)NCc1ccccc1)NC(=O)[C@@H](Cc1c[nH]c2ccccc12)NC(=O)[C@@H](Cc1ccc(O)cc1)NC(C)=O)[C@@H](C)O)C(=O)N[C@@H](Cc1c[nH]c2ccccc12)C(N)=O
B13 returned an intracellular Ca ion level-increasing activity [specific activity to Metastin (1-54)] (relative to Metastin (1-54)) of 3.6.

B14: des(1)-Ac-[D-Tyr2,Hyp3,Gln4,Thr5,AzaGly7,Arg(Me)9,Trp10]MS10 (peptide)
peptide: Ac-[dY][Hyp]QTF[azaGly]L[Arg(Me)]W-NH2
SMILES: CNC(=N)NCCC[C@H](NC(=O)[C@H](CC(C)C)NC(=O)NNC(=O)[C@H](Cc1ccccc1)NC(=O)[C@@H](NC(=O)[C@H](CCC(N)=O)NC(=O)[C@@H]1C[C@@H](O)CN1C(=O)[C@@H](Cc1ccc(O)cc1)NC(C)=O)[C@@H](C)O)C(=O)N[C@@H](Cc1c[nH]c2ccccc12)C(N)=O
With B14, the intracellular Ca ion level-increasing activity [specific activity to Metastin (1-54)] (relative to Metastin (1-54)) is 0.8.

B15: des(1)-Ac-[D-Tyr2,Hyp3,Gly4,Thr5,AzaGly7,Arg(Me)9,Trp10]MS10 (peptide)
peptide: Ac-[dY][Hyp]GTF[azaGly]L[Arg(Me)]W-NH2
SMILES: CNC(=N)NCCC[C@H](NC(=O)[C@H](CC(C)C)NC(=O)NNC(=O)[C@H](Cc1ccccc1)NC(=O)[C@@H](NC(=O)CNC(=O)[C@@H]1C[C@@H](O)CN1C(=O)[C@@H](Cc1ccc(O)cc1)NC(C)=O)[C@@H](C)O)C(=O)N[C@@H](Cc1c[nH]c2ccccc12)C(N)=O
B15 yielded an intracellular Ca ion level-increasing activity [specific activity to Metastin (1-54)] (relative to Metastin (1-54)) of 0.7.

B16: des(1-5)-4-Ureidobenzoyl-[AzaGly7,Arg(Me)9,Trp10]MS10 (peptide)
peptide: {4‑ureidobenzoyl}-F[azaGly]L[Arg(Me)]W-NH2
As to B16, the intracellular Ca ion level-increasing activity [specific activity to Metastin (1-54)] (relative to Metastin (1-54)) turned out to be 1.3.

B17: des(1)-Ac-[D-Tyr2,D-Trp3,Asp(NHcPr)4,Thr5,AzaGly7,Arg(Me)9,Trp10]MS10 (peptide)
peptide: Ac-[dY][dW][Asp(NHcPr)]TF[azaGly]L[Arg(Me)]W-NH2
SMILES: CNC(=N)NCCC[C@H](NC(=O)[C@H](CC(C)C)NC(=O)NNC(=O)[C@H](Cc1ccccc1)NC(=O)[C@@H](NC(=O)[C@H](CC(=O)NC1CC1)NC(=O)[C@@H](Cc1c[nH]c2ccccc12)NC(=O)[C@@H](Cc1ccc(O)cc1)NC(C)=O)[C@@H](C)O)C(=O)N[C@@H](Cc1c[nH]c2ccccc12)C(N)=O
Take B17: the intracellular Ca ion level-increasing activity [specific activity to Metastin (1-54)] (relative to Metastin (1-54)) was determined as 1.6.

B18: des(1)-Ac-[D-Tyr2,Hyp3,D-Ala5,AzaGly7,Arg(Me)9,Trp10]MS10 (peptide)
peptide: Ac-[dY][Hyp]N[dA]F[azaGly]L[Arg(Me)]W-NH2
SMILES: CNC(=N)NCCC[C@H](NC(=O)[C@H](CC(C)C)NC(=O)NNC(=O)[C@H](Cc1ccccc1)NC(=O)[C@@H](C)NC(=O)[C@H](CC(N)=O)NC(=O)[C@@H]1C[C@@H](O)CN1C(=O)[C@@H](Cc1ccc(O)cc1)NC(C)=O)C(=O)N[C@@H](Cc1c[nH]c2ccccc12)C(N)=O
Regarding B18, the intracellular Ca ion level-increasing activity [specific activity to Metastin (1-54)] (relative to Metastin (1-54)) came to 0.5.

B19: des(1)-Ac-[D-Tyr2,Hyp3,Hyp5,AzaGly7,Arg(Me)9,Trp10]MS10 (peptide)
peptide: Ac-[dY][Hyp]N[Hyp]F[azaGly]L[Arg(Me)]W-NH2
SMILES: CNC(=N)NCCC[C@H](NC(=O)[C@H](CC(C)C)NC(=O)NNC(=O)[C@H](Cc1ccccc1)NC(=O)[C@@H]1C[C@@H](O)CN1C(=O)[C@H](CC(N)=O)NC(=O)[C@@H]1C[C@@H](O)CN1C(=O)[C@@H](Cc1ccc(O)cc1)NC(C)=O)C(=O)N[C@@H](Cc1c[nH]c2ccccc12)C(N)=O
The molecule B19 showed an intracellular Ca ion level-increasing activity [specific activity to Metastin (1-54)] (relative to Metastin (1-54)) of 1.5.

B20: des(1-5)-4-[Bis-(2-Pyridylmethyl)aminomethyl]benzoyl-[AzaGly7,Arg(Me)9,Trp10]MS10 (peptide)
peptide: {4‑(bis-(2-pyridylmethyl)aminomethyl)benzoyl}-F[azaGly]L[Arg(Me)]W-NH2
For B20, the intracellular Ca ion level-increasing activity [specific activity to Metastin (1-54)] (relative to Metastin (1-54)) was determined as 11.1.
